Reference: patent US20200024354A1 (OSSIANIX, published 2020)
Read-outs that look alike come from different tables or passages of the source.

Legend:
[1] = target: T1, recombinant human BAFF-Fc (Sino Biological) (human, UniProt Q9Y275 134-285); assay: ELISA, purified monomeric VNAR on coated BAFF-Fc, anti-FLAG detection
T1 construct: Bought reagent; also called hBAFF; not shown: Fc moiety detected by anti-human Fc

[2] = target: T2, human serum albumin (Sigma) (human, UniProt P02768 25-609); assay: ELISA, periplasmic extract on coated HSA (1 µg/mL), anti-FLAG-HRP
T2 construct: Negative control coat; also called HSA
Protocol: (§1) After selection rounds three and four, 93 individual clones were picked and grown in 96 deep-well plates in auto-induction medium (Novagen). Periplasmic protein was extracted by osmotic shock as described in Müller M R et al. (Generation and isolation of target-specific single-domain antibodies from shark immune repertoires. Methods Mol Biol. 2012; 907:177-94) and directly used in a binding ELISA. Briefly, Nunc Maxisorp 96-well plates were coated at 1 μg/mL with either BAFF-Fc or HSA and periplasmic fraction, pre-blocked in PBS-0.1% Tween+2.5% milk, was exposed to the coated surface. After washing in PBS-0.1% Tween, bound VNARs were detected using a peroxidase-conjugated anti-FLAG antibody (Sigma). Absorbance at 450 nm was recorded using an Envision multiwell reader (Perkin Elmer) and BAFF-specific clones were selected using the criteria: BAFF signal/HSA signal ≥4. The DNA sequence of positive clones was determined by the Sanger chain termination method (GATC biotech), using the specific oligonucleotide 5′-[…]-3′. Protein alignments were performed using the BioEdit software.

[3] = target: T1, recombinant human BAFF-Fc (Sino …); assay: blocking ELISA, VNAR diluted with 1.14 nM BAFF-Fc; binding of BAFF-Fc to coated BAFF-R extracellular domain
[4] = target: T3, APRIL (Sigma) (UniProt O75888 105-250, limits assumed); assay: ELISA, periplasmic extract on coated APRIL (1 µg/mL), anti-FLAG-HRP
T3 sequence (looked up): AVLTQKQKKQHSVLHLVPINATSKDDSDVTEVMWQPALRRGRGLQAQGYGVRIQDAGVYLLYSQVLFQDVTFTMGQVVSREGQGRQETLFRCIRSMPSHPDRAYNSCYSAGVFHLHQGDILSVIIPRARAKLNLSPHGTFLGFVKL
Protocol: Clones blocking the interaction between BAFF and its three receptors were tested for their ability to cross-react with BAFF's closest related protein, APRIL. Clones were grown in a 96 well format, periplasmic fraction was extracted by osmotic shock as previously described and directly used in a binding ELISA. Nunc Maxisorp 96 well plates were coated at 1 μg/mL with either BAFF-Fc (Sino Biological), HSA (Sigma), or APRIL (Sigma) and periplasmic fraction, pre-blocked in PBS-0.1% Tween+2.5% Milk, was exposed to the coated surface. After washing in PBS-0.1% Tween, bound VNARs were detected using a peroxidase-conjugated anti-FLAG antibody (Sigma). Absorbance at 450 nm was recorded using an Envision multiwell reader (Perkin Elmer).

[5] = target: recombinant mouse BAFF (R&D Systems) (mouse, UniProt Q9WU72 127-309); assay: Mouse cross-reactivity grade (binds to both human and mouse BAFF); assay not described
[6] = target: T1, recombinant human BAFF-Fc (Sino …); assay: blocking ELISA, VNAR diluted with 0.5 nM BAFF-Fc; binding of BAFF-Fc to coated TACI
Protocol: (§2) The pre-blocked proteins were then exposed to Nunc Maxisorp 96 well plates which were coated at 1 μg/mL with the recombinant human TACI or BCMA (Peprotech), preblocked in (PBS-0.1% Tween+2.5% Milk). After washing in PBS-0.1% Tween, BAFF bound to its receptor was detected via its Fc moiety using a peroxidase-conjugated anti-human Fc (Sigma). Absorbance at 450 nm was recorded using an Envision multiwell reader (Perkin Elmer) and IC50 values were calculated by fitting the curves (non-linear regression) using GraphPad Prism®. The results are shown in FIG. 15 and the fitted IC50 values are tabulated below.

[7] = target: T1, recombinant human BAFF-Fc (Sino …); assay: blocking ELISA, binding of BAFF-Fc to coated BR3 (BAFF-R); repeats Table 2
[8] = target: T1, recombinant human BAFF-Fc (Sino …); assay: blocking ELISA, VNAR diluted with 0.5 nM BAFF-Fc; binding of BAFF-Fc to coated BCMA
Protocol: as §2

[9] = target: T1, recombinant human BAFF-Fc (Sino …); assay: cell-based or functional assay
[10] = target: T1, recombinant human BAFF-Fc (Sino …); assay: ELISA, periplasmic extract on coated BAFF-Fc (1 µg/mL), anti-FLAG-HRP
Protocol: as §1

[11] = target: T2, human serum albumin (Sigma); assay: ELISA, periplasmic extract on coated HSA (1 µg/mL), anti-FLAG-HRP; remark: listed apart in the source

T1 sequence (Q9Y275 134-285): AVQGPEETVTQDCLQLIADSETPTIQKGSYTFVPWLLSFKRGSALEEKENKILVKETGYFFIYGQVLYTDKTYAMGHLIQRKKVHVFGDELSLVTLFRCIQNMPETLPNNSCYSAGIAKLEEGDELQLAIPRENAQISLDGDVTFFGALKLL
Sequence of recombinant mouse BAFF (R&D Systems) (Q9WU72 127-309 limits assumed): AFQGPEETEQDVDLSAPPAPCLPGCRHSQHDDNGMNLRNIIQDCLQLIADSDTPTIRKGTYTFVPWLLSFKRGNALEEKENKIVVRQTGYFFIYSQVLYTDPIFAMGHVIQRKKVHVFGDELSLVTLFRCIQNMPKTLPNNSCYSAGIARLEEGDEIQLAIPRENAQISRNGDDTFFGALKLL
T2 sequence (P02768 25-609 limits assumed): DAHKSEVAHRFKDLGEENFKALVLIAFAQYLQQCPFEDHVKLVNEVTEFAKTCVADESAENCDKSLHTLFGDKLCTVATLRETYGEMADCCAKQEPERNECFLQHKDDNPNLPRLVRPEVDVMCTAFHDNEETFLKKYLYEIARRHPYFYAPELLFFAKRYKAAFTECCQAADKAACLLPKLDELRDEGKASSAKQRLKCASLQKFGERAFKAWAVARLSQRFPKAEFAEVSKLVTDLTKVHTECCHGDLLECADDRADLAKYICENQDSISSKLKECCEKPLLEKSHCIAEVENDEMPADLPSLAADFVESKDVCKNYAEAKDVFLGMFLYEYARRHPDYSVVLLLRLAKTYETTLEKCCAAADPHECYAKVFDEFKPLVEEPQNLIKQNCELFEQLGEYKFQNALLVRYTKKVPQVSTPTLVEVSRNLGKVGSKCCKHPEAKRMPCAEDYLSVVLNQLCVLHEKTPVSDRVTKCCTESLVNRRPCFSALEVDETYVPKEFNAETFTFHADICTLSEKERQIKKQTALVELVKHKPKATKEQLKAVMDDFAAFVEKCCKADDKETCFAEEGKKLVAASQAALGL

| Binder | EC50 [1] [nM] | binding result [2] | IC50 [3] [nM] | binding result [4] | binding result [5] | IC50 [6] [nM] | IC50 [7] [nM] | IC50 [8] [nM] | CELLULAR IC50 [9] [nM] | binding result [10] | binding result [11] |
| --- | --- | --- | --- | --- | --- | --- | --- | --- | --- | --- | --- |
| ID2-101B05 (VNAR, Nurse shark VNAR single domain, monomer) VNAR: AARVDQTPRSVTKETGESLTINCVLRDSICALSSTHWYRKKSGSTNEESISKGGRYVETVNSGSKSFSLRINDLTVEDSGTYRCKVNHDLLTSSRRCQSQIKDVYGGGTVVTVNA | 11.8 | no binding | 148 | no binding | – | – | – | – | – | – | – |
| ID2-101A05 (VNAR, Nurse shark VNAR single domain, tested as monomer) VNAR: AARVDQTPQTITKETGESLTINCVLRDNNCALSTTYWYRKKSGSTNEENISKGGRYVETVNSGSKSFSLRINDLTVEDSGTYRCKVSKDWLLCRDRGRRETDVYGDGTAVTVNA | 1.5 | no binding | 13.8 | no binding | binds | 57.8 | 13.8 | 17.4 | 135 | – | – |
| ID2-101B03 (VNAR, Nurse shark VNAR single domain, monomer in periplasmic extract) VNAR: AARVDQTPRSVTKETGESLTINCVLRDNNCALSTTYWYRKKSGSTNEENISKGGRYVETVNSGSKSFSLRINDLTVEDSGTYRCKVKPDLLFCSSSGLGLIQDVYGGGTAVTVNA | – | – | – | – | – | – | – | – | – | binds | – |
| ID2-101A12 (VNAR, Nurse shark VNAR single domain, monomer) VNAR: AARVDQTPQTVTKETGESLTINCVLRDASYALGSTCWYRKKSGSRNEESISKGGRYVETVNSGSKSFSLRINDLTVEDSGTYRCKVRDPLLFPRDRCDGESKDVYGGGTVVTVNA | 4.57 | – | 49.2 | – | – | – | – | – | – | – | no binding |
| ID2-101C03 (VNAR, Nurse shark VNAR single domain, monomer in periplasmic extract) AQAAARVDQTPRSVTKETGESLTINCVLRDSICALSSTHWYRKKSGSTNEESISLGGRYVETVNSGSKSFSLKINDLTVEDSGTYRCKVTRYVVFSGSTCRMRRADVYGGGTVVTMNAASGAHHHHHHGADYKDDDDK | – | – | – | – | – | – | – | – | – | binds | – |
| ID2-101C02 (VNAR, Nurse shark VNAR single domain, monomer in periplasmic extract) VNAR: AARVDQTPQTITKETGESLTINCVLRDNNCALSTTYWYRKKSGSTNEENISKGGRYVETVNSGSKSFSLKINDLTVKDSGTYRCKVTRDPLFCSYRASKRHDVYGGGTVVTVNA | – | – | – | – | – | – | – | – | – | binds | – |
| ID2-101B07 (VNAR, Nurse shark VNAR single domain, monomer) VNAR: AARVDQTPRSVTKETGESLTINCVLRDSICALSSTHWYRKKSGSTNEESISKGGRYVETVNSGSKSFSLRINDLTVEDSGTYRCKVHGGRSTGLCGDVLLAGDVYGGGTAVTVNA | 0.8 | – | 6.8 | – | – | 24 | 6.8 | 18.9 | 60 | – | no binding |
| ID2-101A03 (VNAR, Nurse shark VNAR single domain, monomer) VNAR: AARVDQTPQTITKETGESLTINCVLRDNNCALSTTYWYRKKSGSTNEENISKGGRYVETVNSGSKSFSLKINDLTVEDSGTYRCKVRVDRLLCGWRVGRRQLGDVYGGGTVVTVNA | 17.2 | no binding | 12.3 | no binding | – | – | – | – | – | – | – |
| ID2-101A01 (VNAR, Nurse shark VNAR single domain, monomer in periplasmic extract) VNAR: AARVDQTPQTITKETGESLTINCVLRDSNCALSNLYWYRKKSGSTNEESISLGGRYVETVNSGSKSFSLRINDLTVEDSGTYRCKVRRARVIGGEYCRVQWQDVYGGGTAVTVNA | – | – | – | – | – | – | – | – | – | binds | – |
| ID2-101B01 (VNAR, Nurse shark VNAR single domain, monomer) VNAR: AARVDQTPQTITKETGESLTINCVLRDSNCALSSTYWYRKKSGSTNEESISKGGRYVETVNSGSKSFSLRINDLTVEDSGTYRCNVAPTIISGCSIKRRDVYGGGTAVTVNA | 7.4 | no binding | 91.2 | – | – | – | – | – | – | – | – |
| ID2-101B11 (VNAR, Nurse shark VNAR single domain, monomer) VNAR: AARVDQTPRSVTKETGESLTINCVLRDSNCALSSTYWYRKKSGSTNEENISKGGRYVETVNSGSKSFSLRINDLTVEDSGTYRCKVMLDPLLCPALLESMTDVYGGGTAVTVNA | 2.49 | no binding | 6.85 | no binding | – | – | – | – | – | – | – |
| ID2-101A09 (VNAR, Nurse shark VNAR single domain, monomer) VNAR: AARVDQTPQTITKETGESLTINCVLRDNNCALSTTYWYRKKSGSTNEESISKGGRYVETVNSGSKSFSLRINDLTVEDSGTYRCKVREDPLMCRYYLDRYRDVYGGGTVVTVNA | 4.9 | – | 9.7 | no binding | binds | 27.2 | 9.7 | 23.6 | 215 | – | no binding |
| ID2-101B10 (VNAR, Nurse shark VNAR single domain, monomer) VNAR: AARVDQTPQTITKETGESLTINCVLRDSNCALSSTYWYRKKSGSTNEESISKGGRYVETVNSGSKSFSLRINDLTVEDSGTYRCKVRIDPLLCNASYVKWDDVYGGGTVVTVNA | 1 | no binding | 2.8 | no binding | binds | 14.1 | 2.8 | 10.5 | ~100 | – | – |
| ID2-101C01 (VNAR, Nurse shark VNAR single domain, monomer) VNAR: AARVDQTPQTITKETGESLTINCVLRDNNCALSTTYWYRKKSGSTNEENISKGGRYVETVNSGSKSFSLRINDLTVEDSGTYRCKVRLDLLLCRNGSTNSIDVYGGGTAVTVNA | 2.13 | no binding | 3.85 | – | – | – | – | – | – | – | – |
| ID2-101B12 (VNAR, Nurse shark VNAR single domain, monomer) VNAR: AARVDQTPQTITKETGESLTINCVLRDSNCALSSTYWYRKKSGSTNEESISKGGRYVETVNSGSKSFSLRINDLTVEDSGTYRCKVFIDPLLCSRDALGFSDVYGDGTAVTVNA | 2.7 | no binding | 9.32 | no binding | – | – | – | – | – | – | – |
| ID2-101A07 (VNAR, Nurse shark VNAR single domain, tested as monomer) VNAR: AARVDQTPQTITKETGESLTINCVLRDSNCALSNLYWYRKKSGSTNEESISLGGRYVETVNSGSKSFSLRINDLTVEDSGTYRCKVQLPYDPLTKECILGRMDVYGDGTAVTVNA | 0.5 | no binding | 6.8 | no binding | – | 82.7 | 6.8 | 24.5 | 58 | – | – |
